Reference: patent US20230256017A1 (published 2023)

Columns and labels:
[1] = target: T1, CD2 (human, UniProt P06729 25-351); assay: legend of FIG. 55 (CAR transduction of donor T cells by costimulatory molecule targeted); no direct binding assay
T1 construct: whole, on cells; also called T-cell surface antigen T11/Leu-5/CD2
T1 sequence (looked up): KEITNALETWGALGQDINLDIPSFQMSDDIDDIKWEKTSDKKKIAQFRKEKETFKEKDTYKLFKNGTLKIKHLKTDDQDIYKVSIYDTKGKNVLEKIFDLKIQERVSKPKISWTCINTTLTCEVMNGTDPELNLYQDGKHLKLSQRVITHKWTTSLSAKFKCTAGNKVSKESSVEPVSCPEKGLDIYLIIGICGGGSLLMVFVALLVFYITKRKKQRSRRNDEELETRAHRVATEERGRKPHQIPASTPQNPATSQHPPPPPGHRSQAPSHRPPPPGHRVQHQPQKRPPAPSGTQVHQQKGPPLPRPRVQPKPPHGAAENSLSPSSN

[2] = target: T2, BCMA (TNFRSF17) (human, UniProt Q02223 1-184, limits assumed); assay: commercial human plasma membrane protein array
T2 construct: Member of a commercial human plasma membrane protein array
T2 sequence (looked up): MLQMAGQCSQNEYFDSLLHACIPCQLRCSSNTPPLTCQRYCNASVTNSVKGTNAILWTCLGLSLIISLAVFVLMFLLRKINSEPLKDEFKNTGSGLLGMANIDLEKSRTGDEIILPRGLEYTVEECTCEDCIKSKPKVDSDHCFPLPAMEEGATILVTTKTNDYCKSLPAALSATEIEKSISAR

B1: Construct 1 (bispecific antibody, human IgG1, kappa)
light: DVVMTQSPPSLLVTLGQPASISCRSSQSLLHSSGNTYLNWLLQRPGQSPQPLIYLVSKLESGVPDRFSGSGSGTDFTLKISGVEAEDVGVYYCMQFTHYPYTFGQGTKLEIKRTVAAPSVFIFPPSDEQLKSGTASVVCLLNNFYPREAKVQWKVDNALQSGNSQESVTEQDSKDSTYSLSSTLTLSKADYEKHKVYACEVTHQGLSSPVTKSFNRGEC
heavy: not shown
notes: Anti-CD3 scFv fused to an anti-CD2 Fab, further fused to a wild type Fc; also called F1
B1: binds [1].

B2: Construct 15 (bispecific antibody, human IgG1, kappa)
light: B1 light
heavy 1: QVQLVQSGAEVQRPGASVKVSCKASGYIFTEYYMYWVRQAPGQGLELVGRIDPEDGSIDYVEKFKKKVTLTADTSSSTAYMELSSLTSDDTAVYYCARGKFNYRFAYWGQGTLVTVSSASTKGPSVFPLAPSSKSTSGGTAALGCLVKDYFPEPVTVSWNSGALTSGVHTFPAVLQSSGLYSLSSVVTVPSSSLGTQTYICNVNHKPSNTKVDKRVEPKSCDKTHTCPPCPAPELLGGPSVFLFPPKPKDTLMISRTPEVTCVVVDVSHEDPEVKFNWYVDGVEVHNAKTKPREEQYNSTYRVVSVLTVLHQDWLNGKEYKCKVSNKALPAPIEKTISKAKGQPREPQVCTLPPSREEMTKNQVSLSCAVKGFYPSDIAVEWESNGQPENNYKTTPPVLDSDGSFFLVSKLTVDKSRWQQGNVFSCSVMHEALHNRFTQKSLSLSPGK
heavy 2: not shown
notes: Anti-CD2 Fab-Fc paired with anti-CD3 scFv-Fc-(G4S)-COMPcc; also called F15
B2: binds [1].

B3: Construct 12 (bispecific antibody, human IgG1, kappa)
light: B1 light
heavy 1: B2 heavy 1
heavy 2: not shown
notes: Anti-CD2 Fab-Fc paired with anti-CD3 scFv-Fc-(G4S)3-Matrilin1; also called F12
B3: binds [1].

B4: Construct 7 (bispecific antibody)
light: B1 light
heavy: not shown
notes: Anti-CD3 scFv fused to an Fc, further fused to an anti-CD2 Fab; Stated ligand valency of 2; also called F7
B4: binds [1].

B5: Construct 5 (bispecific antibody)
light: B1 light
heavy: not shown
notes: Anti-CD2 Fab fused to an anti-CD3 scFv, further fused to an Fc; Stated ligand valency of 2; also called F5
B5: binds [1].

B6: Construct 3 (bispecific antibody, human IgG1, kappa)
light: B1 light
heavy: not shown
notes: Anti-CD2 Fab fused to a wild type Fc, further fused to an anti-CD3 scFv; Stated ligand valency of 2; also called F3
B6: binds [1].

B7: anti-human BCMA single chain antibody variable fragment (scFv) (PI61) (scFv)
scFv: QVQLQESGGGVVQPGRSLRLSCAASGFTFSSYGMHWVRQAPGKGLEWVAVISYDGSNKYYADSVKGRFTISRDNSKNTLYLQMNSLRAEDTAVYYCGGSGYALHDDYYGLDVWGQGTLVTVSSGGGGSGGGGSGGGGSQSALTQPASVSGSPGQSITISCTGTSSDVGGYNYVSWYQQHPGKAPKLMIYDVSNRPSGVSNRFSGSKSGNTASLTISGLQAEDEADYYCSSYTSSSTLYVFGSGTKVTVL
notes: also called PI61 scFv
B7: binds [2].
